Values of other authors in patent US20060183681A1, “Stabilized compositions containing natriuretic peptides” (Bio-Rad Laboratories, Inc., priority 2005, published 2006).

## B-type natriuretic peptide [BNP]
  half-life (t1/2) in vivo: approximately 23 minutes
